Test results published in publication PMC3608532, “Characterization of a Single-Chain Variable Fragment Recognizing a Linear Epitope of Aβ: A Biotechnical Tool for Studies on Alzheimer’s Disease?” (PLoS ONE, 2013).

What was measured:
Experiment in all cases: SPR; Biacore X; Aβ peptides coupled via the C-terminal cysteine to a CM5 chip; IC16 injected (10 to 1000 nM), 20 µl/min, PBS, 25°C; global fit, bivalent binding model
Conditions in all cases: both partners purified
Aβ(2-8)-GSGSC = biological target: T1, Aβ(2-8)-GSGSC (human)
T1 construct: amyloid-β peptide (Aβ), cut from the amyloid precursor protein (APP), human, residues 2-8; C-terminal spacer with the cysteine by which the peptide was coupled to the chip; source: synthetic peptide, bought: JPT
T1 chain: AEFRHDSGSGSC

Aβ(3-8)-GSGSC = biological target: T2, Aβ(3-8)-GSGSC (human)
T2 construct: amyloid-β peptide (Aβ), cut from the amyloid precursor protein (APP), human, residues 3-8; C-terminal spacer with the cysteine by which the peptide was coupled to the chip; source: synthetic peptide, bought: JPT
T2 chain: EFRHDSGSGSC

Aβ(1-8)-GSGSC = biological target: T3, Aβ(1-8)-GSGSC (human)
T3 construct: amyloid-β peptide (Aβ), cut from the amyloid precursor protein (APP), human, residues 1-8; C-terminal spacer with the cysteine by which the peptide was coupled to the chip; source: synthetic peptide, bought: JPT
T3 chain: DAEFRHDSGSGSC

- Kd (Aβ(2-8)-GSGSC): 32 nM
- koff (Aβ(2-8)-GSGSC): 0.00154 s⁻¹
- kon (Aβ(2-8)-GSGSC): 48500 M⁻¹ s⁻¹
- Kd (Aβ(3-8)-GSGSC): 82 nM
- koff (Aβ(3-8)-GSGSC): 0.00343 s⁻¹
- kon (Aβ(3-8)-GSGSC): 41700 M⁻¹ s⁻¹
- Kd (Aβ(1-8)-GSGSC): 51 nM
- koff (Aβ(1-8)-GSGSC): 0.0018 s⁻¹
- kon (Aβ(1-8)-GSGSC): 35000 M⁻¹ s⁻¹
B1: monoclonal IgG2a antibody IC16 (antibody, V domains shown)
VH: QVTLKESGPGILQPSQTLSLTCSFSGFSLSTSGMGVSWIRQPSGKGLEWLAHIFWDDDKNYNPSLKSRLTVSKDTSRNQVFLKITSVDTSDTATYYCARSPHLRGYDVDFDYWGQGTTLTVSS
VL: DVLMTQTPLSLPVSLGDQASISCRSSQSLVHSNGNTYLHWYLQKPGQSPKVLIYKVSNRFSGVPDRFSGSGSGTDFTLKISRVEAEDLGVYFCSQSTHVPLTFGAGTKLELK
notes: IgG2a; raised in a PrP knockout mouse against KLH Aβ(1-16); also called monoclonal parent antibody IC16; source: IC16 hybridoma (mouse); copies: 2 + 2
